Experiments:
[1] = molecular target: putative BibA receptor on human epithelial cells (ME180, A549, Caco2, 16HBE); assay: flow cytometry saturation curve on ME180 cells, BibA concentration at 50% saturation (FIG. 22B)
[2] = molecular target: putative BibA receptor on human epithelial cells (ME180, A549, Caco2, 16HBE); assay: flow cytometry, recombinant BibA on ME180 cells, anti-BibA serum and PE-conjugated secondary antibody
[3] = molecular target: T1, human C4b-binding protein (C4BP) purified from citrated human plasma (human, UniProt P04003 49-597; P20851 18-252); assay: overlay blot of the SDS-PAGE separated constructs with C4bp (FIG. 21C)
T1 construct: also called human plasma C4BP; human complement regulator C4 bp
T1 sequence 1: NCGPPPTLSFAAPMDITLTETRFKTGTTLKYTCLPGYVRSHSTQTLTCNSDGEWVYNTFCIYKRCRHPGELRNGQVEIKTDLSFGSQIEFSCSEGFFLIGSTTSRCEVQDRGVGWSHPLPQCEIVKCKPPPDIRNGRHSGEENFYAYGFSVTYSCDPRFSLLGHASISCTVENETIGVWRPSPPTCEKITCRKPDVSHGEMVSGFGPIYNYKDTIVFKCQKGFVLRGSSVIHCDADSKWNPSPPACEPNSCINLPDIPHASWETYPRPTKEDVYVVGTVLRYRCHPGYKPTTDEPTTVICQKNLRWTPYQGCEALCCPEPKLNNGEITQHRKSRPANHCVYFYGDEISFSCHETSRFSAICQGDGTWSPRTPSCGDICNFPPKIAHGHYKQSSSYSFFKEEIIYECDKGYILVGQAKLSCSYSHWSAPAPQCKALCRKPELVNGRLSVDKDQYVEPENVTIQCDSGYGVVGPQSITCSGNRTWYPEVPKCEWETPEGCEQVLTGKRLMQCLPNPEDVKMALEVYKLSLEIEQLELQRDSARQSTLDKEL
T1 sequence 2: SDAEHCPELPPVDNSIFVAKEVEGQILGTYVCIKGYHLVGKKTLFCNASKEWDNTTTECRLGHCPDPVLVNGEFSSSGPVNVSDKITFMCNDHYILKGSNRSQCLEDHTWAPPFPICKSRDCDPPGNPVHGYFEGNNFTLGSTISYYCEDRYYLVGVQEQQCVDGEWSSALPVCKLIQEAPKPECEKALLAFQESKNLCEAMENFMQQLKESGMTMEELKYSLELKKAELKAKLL

[4] = molecular target: T2, Factor H (alternative complement pathway regulator) (UniProt P08603 19-1231); assay: overlay blot (format not detailed)
T2 construct: also called FH
T2 sequence (P08603 19-1231): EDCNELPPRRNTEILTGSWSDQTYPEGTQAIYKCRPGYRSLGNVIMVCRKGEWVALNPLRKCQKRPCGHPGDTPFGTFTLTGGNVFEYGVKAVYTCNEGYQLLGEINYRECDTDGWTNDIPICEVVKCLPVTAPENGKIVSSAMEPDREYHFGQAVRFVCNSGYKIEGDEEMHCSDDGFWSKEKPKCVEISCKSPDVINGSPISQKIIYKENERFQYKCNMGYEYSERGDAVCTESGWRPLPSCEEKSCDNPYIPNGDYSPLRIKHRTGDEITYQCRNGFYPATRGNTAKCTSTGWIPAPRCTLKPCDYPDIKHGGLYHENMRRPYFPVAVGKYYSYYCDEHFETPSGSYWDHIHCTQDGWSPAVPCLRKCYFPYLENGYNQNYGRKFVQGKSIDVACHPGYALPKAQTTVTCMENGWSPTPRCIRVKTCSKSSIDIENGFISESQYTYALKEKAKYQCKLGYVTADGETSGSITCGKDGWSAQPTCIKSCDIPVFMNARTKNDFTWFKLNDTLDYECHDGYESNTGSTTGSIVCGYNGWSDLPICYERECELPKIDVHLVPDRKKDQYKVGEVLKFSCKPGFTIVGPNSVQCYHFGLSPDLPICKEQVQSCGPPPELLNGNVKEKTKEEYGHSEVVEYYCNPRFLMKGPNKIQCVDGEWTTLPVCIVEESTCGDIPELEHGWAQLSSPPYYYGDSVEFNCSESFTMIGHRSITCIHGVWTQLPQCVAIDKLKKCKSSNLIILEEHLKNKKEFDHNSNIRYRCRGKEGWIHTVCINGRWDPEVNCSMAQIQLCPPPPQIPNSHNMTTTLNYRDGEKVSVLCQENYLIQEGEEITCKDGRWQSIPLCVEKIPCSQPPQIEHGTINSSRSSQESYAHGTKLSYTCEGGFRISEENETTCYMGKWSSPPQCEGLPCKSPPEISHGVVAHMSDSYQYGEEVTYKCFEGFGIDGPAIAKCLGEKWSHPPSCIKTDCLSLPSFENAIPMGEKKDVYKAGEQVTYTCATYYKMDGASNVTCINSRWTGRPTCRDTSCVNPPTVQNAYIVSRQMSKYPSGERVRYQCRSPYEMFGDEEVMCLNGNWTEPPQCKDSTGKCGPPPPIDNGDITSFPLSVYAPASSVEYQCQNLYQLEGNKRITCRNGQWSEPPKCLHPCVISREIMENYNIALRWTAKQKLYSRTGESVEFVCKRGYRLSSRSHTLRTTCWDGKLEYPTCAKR

## BibA-His (GBS3-His), recombinant entire form of BibA from S. agalactiae 2603 V/R with C-terminal His-tag
[1]
  Kd: 40 nM
[2]
  BibA concentration at which binding reached a plateau: 5 µg/mL

B1: BibA-Ct-His (GBS3-Ct-His), proline-rich domain of BibA, aa 389-622 (other)
chain: MQDLTRGTKEDKKPDVKPEAKPEAKPDVKPEAKPDVKPEAKPDVKPEAKPDVKPEAKPDVKPEAKPDVKPKAKPDVKPEAKPDVKPDVKPDVKPEAKPEDKPDVKPDVKPEAKPDVKPEAKPEAKPEAKPEAKPEAKPEAKPDVKPEAKPDVKPEAKPEAKPEAKSEAKPEAKLEAKPEAKPATKKSVNTSGNLAAKKAIENKKYSKKLPSTGEAASPLLAIVSLIVMLSAGLITLEHHHHHH
notes: His-tagged fragment; also called BibA C-terminal construct; C-terminal portion of BibA
[3]
  binding result: no binding (tested: 5 µg/ml)

B2: BibA-His (GBS3-His), recombinant entire form of BibA from S. agalactiae 2603 V/R with C-terminal His-tag (other)
chain: MHADTSSGISASIPHKKQVNLGAVTLKNLISKYRGNDKAIAILLSRVNDFNRASQDTLPQLINSTEAEIRNILYQGQIGKQNKPSVTTHAKVSDQELGKQSRRSQDIIKSLGFLSSDQKDILVKSISSSKDSQLILKFVTQATQLNNAESTKAKQMAQNDVALIKNISPEVLEEYKEKIQRASTKSQVDEFVAEAKKVVNSNKETLVNQANGKKQEIAKLENLSNDEMLRYNTAIDNVVKQYNEGKLNITAAMNALNSIKQAAQEVAQKNLQKQYAKKIERISSKGLALSKKAKEIYEKHKSILPTPGYYADSVGTYLNRFRDKQTFGNRSVWTGQSGLDEAKKMLDEVKKLLKELQDLTRGTKEDKKPDVKPEAKPEAKPDVKPEAKPDVKPEAKPDVKPEAKPDVKPEAKPDVKPEAKPDVKPKAKPDVKPEAKPDVKPDVKPDVKPEAKPEDKPDVKPDVKPEAKPDVKPEAKPEAKPEAKPEAKPEAKPEAKPDVKPEAKPDVKPEAKPEAKPEAKSEAKPEAKLEAKPEAKPATKKSVNTSGNLAAKKAIENKKYSKKLPSTGEAASPLLAIVSLIVMLSAGLITLEHHHHHH
notes: His-tagged protein expressed from pET21b(+) in E. coli; also called recombinant BibA; BibA protein
[4]
  binding result: no binding

B3: BibA-Nt-His (GBS3-Nt-His), coiled-coil domain of BibA, aa 34-394 (other)
chain: MHADTSSGISASIPHKKQVNLGAVTLKNLISKYRGNDKAIAILLSRVNDFNRASQDTLPQLINSTEAEIRNILYQGQIGKQNKPSVTTHAKVSDQELGKQSRRSQDIIKSLGFLSSDQKDILVKSISSSKDSQLILKFVTQATQLNNAESTKAKQMAQNDVALIKNISPEVLEEYKEKIQRASTKSQVDEFVAEAKKVVNSNKETLVNQANGKKQEIAKLENLSNDEMLRYNTAIDNVVKQYNEGKLNITAAMNALNSIKQAAQEVAQKNLQKQYAKKIERISSKGLALSKKAKEIYEKHKSILPTPGYYADSVGTYLNRFRDKQTFGNRSVWTGQSGLDEAKKMLDEVKKLLKELQDLTRGLEHHHHHH
notes: His-tagged fragment expressed from pET21b(+); also called BibA N-terminal construct; N-terminal portion of BibA
[3]
  binding result: binds

— US20090214537A1 (Novartis, published 2009)
